Data reported in patent publication US20230279138A1 (CHIA TAI TIANQING PHARMACEUTICAL GROUP, published 2023).

Assays:
[1] = target: T1, CD20 on Raji cells (CD20+/CD3- cells) (human, UniProt P11836 1-297); experiment: flow cytometry on Raji cells (CD20+/CD3-)
T1 construct: whole, on cells; Raji, Ramos and NAMALWA in the killing assays; also called Ramos; NAMALWA
T1 sequence (looked up): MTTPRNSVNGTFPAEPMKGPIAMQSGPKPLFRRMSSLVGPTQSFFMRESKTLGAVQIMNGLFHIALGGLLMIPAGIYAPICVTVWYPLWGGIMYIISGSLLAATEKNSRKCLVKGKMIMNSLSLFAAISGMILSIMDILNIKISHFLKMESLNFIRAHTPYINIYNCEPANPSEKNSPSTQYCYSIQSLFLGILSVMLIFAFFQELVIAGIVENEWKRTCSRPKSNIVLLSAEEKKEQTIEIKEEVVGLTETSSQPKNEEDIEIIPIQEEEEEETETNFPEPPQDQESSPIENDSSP
Experimental: (§1) After incubation, the cells were washed twice with cold 1% BSA/1×PBS. […] After being washed twice, the geometric mean fluorescence (MFI) of the stained cells was measured using a FACS Canto II […] (BD Biosciences). Wells containing no antibody or containing only fluorescent secondary antibody were used to establish background fluorescence. The EC50 values for cell binding were determined using GraphPad Prism 5 software (GraphPad Software, La Jolla, Calif.); each value was calculated by four-parameter non-linear regression analysis.

[2] = target: T2, CD3 on Jurkat cells (CD3+/CD20- cells) (human, UniProt P07766 23-207; P04234 22-171; P09693 23-182); experiment: flow cytometry on Jurkat 2B8 cells (CD3+/CD20-)
T2 construct: whole, on cells; also called Jurkat 2B8
Experimental: as §1

T2 sequence (P07766 23-207, chain 1 of 3): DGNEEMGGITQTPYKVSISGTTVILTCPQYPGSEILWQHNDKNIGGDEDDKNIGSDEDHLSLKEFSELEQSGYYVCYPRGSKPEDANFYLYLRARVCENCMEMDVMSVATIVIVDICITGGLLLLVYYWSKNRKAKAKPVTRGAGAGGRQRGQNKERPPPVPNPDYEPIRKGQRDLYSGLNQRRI
T2 sequence (P04234 22-171, chain 2 of 3): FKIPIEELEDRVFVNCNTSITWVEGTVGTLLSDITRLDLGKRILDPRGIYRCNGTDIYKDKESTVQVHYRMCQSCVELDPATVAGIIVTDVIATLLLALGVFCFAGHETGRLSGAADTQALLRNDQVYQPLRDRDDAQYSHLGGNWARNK
T2 sequence (P09693 23-182, chain 3 of 3): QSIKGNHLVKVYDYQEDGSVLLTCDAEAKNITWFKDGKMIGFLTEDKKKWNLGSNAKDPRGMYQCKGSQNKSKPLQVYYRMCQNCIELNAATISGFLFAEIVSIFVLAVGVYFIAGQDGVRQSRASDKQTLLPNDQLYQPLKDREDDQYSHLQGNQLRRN

B1: W3278-T3U2.F17R-1.uIgG4.SP (bispecific antibody)
heavy 1: QVQLVQSGAEVKKPGSSVKVSCKASGFAFTDYYIHWVRQAPGQGLEWMGWISPGNVNTKYNENFKGRVTITADKSTSTAYMELSSLRSEDTAVYYCARDGYSLYYFDYWGQGTLVTVLEDLKNVFPPEVAVFEPSEAEISHTQKATLVCLATGFYPDHVELSWWVNGKEVHSGVCTDPQPLKEQPALQDSRYALSSRLRVSATFWQNPRNHFRCQVQFYGLSENDEWTQDRAKPVTQIVSAEAWGRGGGGSGGGGSQVQLQQPGAELVKPGASVKMSCKASGYTFTSYNMHWVKQTPGRGLEWIGAIYPGNGDTSYNQKFKGKATLTADKSSSTAYMQLSSLTSEDSAVYYCARSTYYGGDWYFNVWGAGTTVTVSAASTKGPSVFPLAPCSRSTSESTAALGCLVKDYFPEPVTVSWNSGALTSGVHTFPAVLQSSGLYSLSSVVTVPSSSLGTKTYTCNVDHKPSNTKVDKRVESKYGPPCPPCPAPEFLGGPSVFLFPPKPKDTLMISRTPEVTCVVVDVSQEDPEVQFNWYVDGVEVHNAKTKPREEQFNSTYRVVSVLTVLHQDWLNGKEYKCKVSNKGLPSSIEKTISKAKGQPREPQVYTLPPCQEEMTKNQVSLWCLVKGFYPSDIAVEWESNGQPENNYKTTPPVLDSDGSFFLYSRLTVDKSRWQEGNVFSCSVMHEALHNHYTQKSLSLSLG
heavy 2: QVQLQQPGAELVKPGASVKMSCKASGYTFTSYNMHWVKQTPGRGLEWIGAIYPGNGDTSYNQKFKGKATLTADKSSSTAYMQLSSLTSEDSAVYYCARSTYYGGDWYFNVWGAGTTVTVSAASTKGPSVFPLAPCSRSTSESTAALGCLVKDYFPEPVTVSWNSGALTSGVHTFPAVLQSSGLYSLSSVVTVPSSSLGTKTYTCNVDHKPSNTKVDKRVESKYGPPCPPCPAPEFLGGPSVFLFPPKPKDTLMISRTPEVTCVVVDVSQEDPEVQFNWYVDGVEVHNAKTKPREEQFNSTYRVVSVLTVLHQDWLNGKEYKCKVSNKGLPSSIEKTISKAKGQPREPQVCTLPPSQEEMTKNQVSLSCAVKGFYPSDIAVEWESNGQPENNYKTTPPVLDSDGSFFLVSRLTVDKSRWQEGNVFSCSVMHEALHNHYTQKSLSLSLG
light 1: DIVMTQSPDSLAVSLGERATINCKSSQSLLNSRTRKNYLAWYQQKPGQPPKLLIYWASTRQSGVPDRFSGSGSGTDFTLTISSLQAEDVAVYYCTQSHTLRTFGGGTKVEIKPDIQNPDPAVYQLRDSKSSDKSVCLFTDFDSQTQVSQSKDSDVYITDKCVLDMRSMDFKSNSAVAWSQKSDFACANAFQNSIIPEDTFFPSPESS
light 2: QIVLSQSPAILSASPGEKVTMTCRASSSVSYIHWFQQKPGSSPKPWIYATSNLASGVPVRFSGSGSGTSYSLTISRVEAEDAATYYCQQWTSNPPTFGGGTKLEIKRTVAAPSVFIFPPSDEQLKSGTASVVCLLNNFYPREAKVQWKVDNALQSGNSQESVTEQDSKDSTYSLSSTLTLSKADYEKHKVYACEVTHQGLSSPVTKSFNRGEC
notes: also called W3278 BsAb; WBP3278 BsAb
B1 was tested, and the EC50 [1] was 85.3 nM, the “TOP MFI” value [1] was 64900 MFI and the EC50 [2] was 17.3 nM. The “TOP MFI” value [2] was 7360 MFI.

B2: W3278-T3U2.F16-1.uIgG4.SP (bispecific antibody)
heavy 1: QVQLVQSGAEVKKPGSSVKVSCKASGFAFTDYYIHWVRQAPGQGLEWMGWISPGNVNTKYNENFKGRVTITADKSTSTAYMELSSLRSEDTAVYYCARDGYSLYYFDYWGQGTLVTVLEDLKNVFPPEVAVFEPSEAEISHTQKATLVCLATGFYPDHVELSWWVNGKEVHSGVCTDPQPLKEQPALQDSRYALSSRLRVSATFWQNPRNHFRCQVQFYGLSENDEWTQDRAKPVTQIVSAEAWGRYGPPCPPCPAPEFLGGPSVFLFPPKPKDTLMISRTPEVTCVVVDVSQEDPEVQFNWYVDGVEVHNAKTKPREEQFNSTYRVVSVLTVLHQDWLNGKEYKCKVSNKGLPSSIEKTISKAKGQPREPQVYTLPPCQEEMTKNQVSLWCLVKGFYPSDIAVEWESNGQPENNYKTTPPVLDSDGSFFLYSRLTVDKSRWQEGNVFSCSVMHEALHNHYTQKSLSLSLG
heavy 2: QVQLQQPGAELVKPGASVKMSCKASGYTFTSYNMHWVKQTPGRGLEWIGAIYPGNGDTSYNQKFKGKATLTADKSSSTAYMQLSSLTSEDSAVYYCARSTYYGGDWYFNVWGAGTTVTVSAASTKGPSVFPLAPCSRSTSESTAALGCLVKDYFPEPVTVSWNSGALTSGVHTFPAVLQSSGLYSLSSVVTVPSSSLGTKTYTCNVDHKPSNTKVDKRVGGGGSGGGGSQVQLQQPGAELVKPGASVKMSCKASGYTFTSYNMHWVKQTPGRGLEWIGAIYPGNGDTSYNQKFKGKATLTADKSSSTAYMQLSSLTSEDSAVYYCARSTYYGGDWYFNVWGAGTTVTVSAASTKGPSVFPLAPCSRSTSESTAALGCLVKDYFPEPVTVSWNSGALTSGVHTFPAVLQSSGLYSLSSVVTVPSSSLGTKTYTCNVDHKPSNTKVDKRVESKYGPPCPPCPAPEFLGGPSVFLFPPKPKDTLMISRTPEVTCVVVDVSQEDPEVQFNWYVDGVEVHNAKTKPREEQFNSTYRVVSVLTVLHQDWLNGKEYKCKVSNKGLPSSIEKTISKAKGQPREPQVCTLPPSQEEMTKNQVSLSCAVKGFYPSDIAVEWESNGQPENNYKTTPPVLDSDGSFFLVSRLTVDKSRWQEGNVFSCSVMHEALHNHYTQKSLSLSLG
light 1: DIVMTQSPDSLAVSLGERATINCKSSQSLLNSRTRKNYLAWYQQKPGQPPKLLIYWASTRQSGVPDRFSGSGSGTDFTLTISSLQAEDVAVYYCTQSHTLRTFGGGTKVEIKPDIQNPDPAVYQLRDSKSSDKSVCLFTDFDSQTQVSQSKDSDVYITDKCVLDMRSMDFKSNSAVAWSQKSDFACANAFQNSIIPEDTFFPSPESS
light 2: QIVLSQSPAILSASPGEKVTMTCRASSSVSYIHWFQQKPGSSPKPWIYATSNLASGVPVRFSGSGSGTSYSLTISRVEAEDAATYYCQQWTSNPPTFGGGTKLEIKRTVAAPSVFIFPPSDEQLKSGTASVVCLLNNFYPREAKVQWKVDNALQSGNSQESVTEQDSKDSTYSLSSTLTLSKADYEKHKVYACEVTHQGLSSPVTKSFNRGEC
notes: Human IgG4 S228P, knobs-into-holes; also called W3278 BsAb; WBP3278 BsAb
For B2, the EC50 [1] was > 1000 nM, the “TOP MFI” value [1] was 55200 MFI and the EC50 [2] was 58.9 nM. For the same binder, the “TOP MFI” value [2] was 6750 MFI.
